Laboratory results from patent US20250163162A1 (SYNTHEKINE, published 2025).
Values belong to the binder of their own block, whether it stands above or below them.

Experiments:
[1] = target: T1, cIL2Rg-Fc (lot#P210115SV5) (cynomolgus, UniProt A0A2K5VGJ6 23-262); assay: SPR (Biacore T200); ratio experimental/calculated Rmax
T1 construct: Named only by lot number; also called cynomolgus IL2Rg-Fc; not shown: Fc of the fusion protein
T1 sequence: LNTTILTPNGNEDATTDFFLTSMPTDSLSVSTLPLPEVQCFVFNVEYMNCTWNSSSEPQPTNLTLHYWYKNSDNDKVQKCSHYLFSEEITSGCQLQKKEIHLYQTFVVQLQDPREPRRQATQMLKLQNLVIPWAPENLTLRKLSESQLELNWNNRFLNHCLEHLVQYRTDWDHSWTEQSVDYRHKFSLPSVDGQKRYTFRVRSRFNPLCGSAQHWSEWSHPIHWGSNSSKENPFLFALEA

[2] = target: T2, hIL2Rg-Fc (SinoBiological cat#10555) (human, UniProt P31785 23-254, limits assumed); assay: as above
T2 construct: Bought Fc fusion (SinoBiological cat#10555); P31785 is printed for hCD132 in the background; also called human IL2Rg-Fc; not shown: Fc of the bought fusion protein
T2 sequence (looked up): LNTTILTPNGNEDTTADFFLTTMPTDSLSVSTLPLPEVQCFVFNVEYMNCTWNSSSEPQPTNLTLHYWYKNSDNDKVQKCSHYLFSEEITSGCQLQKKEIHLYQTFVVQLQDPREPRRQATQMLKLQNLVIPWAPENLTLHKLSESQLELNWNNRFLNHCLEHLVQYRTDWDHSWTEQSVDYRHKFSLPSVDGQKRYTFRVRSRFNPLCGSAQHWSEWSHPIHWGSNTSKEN

[3] = target: T1, cIL2Rg-Fc (lot#P210115SV5); assay: SPR (Biacore T200), Fc-fused ligand captured on chip, dual VHH as analyte, 1:1 Langmuir fit
Method: (§1) All experiments were conducted in 10 mM Hepes, 150 mM NaCl, 0.05% (v/v) Polysorbate 20 (PS20) and 3 mM EDTA (HBS-EP+ buffer) on a Biacore T200 instrument equipped with Protein A or CAP biotin chips (Cytiva). For experiments on Protein A chips, Fc-fused ligands were flowed at 5 μl/min for variable time ranging from 18 to 300 seconds, reaching the capture loads listed in the tables below. Following ligand capture, injections of a 2-fold dilution series of analyte typically comprising at least five concentrations between 1 μM and 1 nM were performed in either high performance or single cycle kinetics mode. Surface regeneration was achieved by flowing 10 mM glycine-HCl, pH 1.5 (60 seconds, […]). Buffer-subtracted sensograms were processed with Biacore T200 Evaluation Software and globally fit with a 1:1 Langmuir binding model (bulk shift set to zero) to extract kinetics and affinity constants (kₐ, kd, KD). RMAX<100 RU indicates surface density compatible with kinetics analysis. Experiments on CAP chips were performed as described above with an additional capture step of Biotin CAPture reagent (10 seconds, 40 uL/min) performed prior to capture of biotinylated ligands. Calculated Rmax were generated using the equation Rmax=Load (RU) x valency of ligand x (Molecular weight of analyte/Molecular weight of ligand. Surface activity was defined as the ratio experimental/calculated Rmax. The results of these experiments are provided in below for sample information and experimental results.

[4] = target: T2, hIL2Rg-Fc (SinoBiological cat#10555); assay: as above
Method: as §1

Surface Activity [1]: 1%
Surface Activity [2]: 5%
Kd [3]: 2.2 nM
koff [3]: 0.0012 s⁻¹
kon [3]: 560000 M⁻¹ s⁻¹
Kd [4]: 2.7 nM
koff [4]: 0.001 s⁻¹
kon [4]: 390000 M⁻¹ s⁻¹
B1: DR438(DR235-DR234) (bispecific antibody)
chain: QVQLQESGGGSVQAGGSLRLSCAASRYLYSIDYMAWFRQSPGKEREPVAVIYTASGATFYPDSVKGRFTISQDNAKMTVYLQMNSLKSEDTAMYYCAAVRKTDSYLFDAQSFTYWGQGTQVTVSSGGGSQVQLQESGGGSVQAGGSLRLSCVASGYTFSSYCMGWFRQAPGKEREGVAALGGGSTYYADSVKGRFTISQDNAKNTLYLQMNSLKPEDTAMYYCAAAWVACLEFGGSWYDLARYKHWGQGTQVTVSSASHHHHHH
notes: Anti-hIL10Ra/hIL2Rg dual VHH with ASH6 handle; also called D12

Surface Activity [1]: 1%
Surface Activity [2]: 3%
Kd [3]: 7.8 nM
koff [3]: 0.0022 s⁻¹
kon [3]: 290000 M⁻¹ s⁻¹
Kd [4]: 27.5 nM
koff [4]: 0.0051 s⁻¹
kon [4]: 190000 M⁻¹ s⁻¹
B2: DR437(DR235-DR233) (bispecific antibody)
chain: QVQLQESGGGSVQAGGSLRLSCAASRYLYSIDYMAWFRQSPGKEREPVAVIYTASGATFYPDSVKGRFTISQDNAKMTVYLQMNSLKSEDTAMYYCAAVRKTDSYLFDAQSFTYWGQGTQVTVSSGGGSQVQLQESGGGSVQAGGSLRLSCTASGFTFDDSDMGWYRQAPGNECELVSTISSDGSTYYADSVKGRFTISQDNAKNTVYLQMNSLKPEDTAVYYCAAEPRGYYSNYGGRRECNYWGQGTQVTVSSASHHHHHH
notes: Anti-hIL10Ra/hIL2Rg dual VHH with ASH6 handle; also called D6

Surface Activity [1]: 1%
Surface Activity [2]: 4%
Kd [3]: 3.2 nM
koff [3]: 0.0022 s⁻¹
kon [3]: 700000 M⁻¹ s⁻¹
Kd [4]: 14.5 nM
koff [4]: 0.0037 s⁻¹
kon [4]: 250000 M⁻¹ s⁻¹
B3: DR465(DR240-DR231) (bispecific antibody)
chain: QVQLQESGGGSVQAGGSLRLSCGASGYTYSSYCMGWFRQVPGKEREGVAVIDSDGSTSYADSVKGRFTISKDNGKNTLYLQMNSLKPEDTAMYYCAADLGHYRPPCGVLYLGMDYWGKGTQVTVSSGGGSQVQLQESGGGSVQAGGSLRLSCTASGFTFDDREMNWYRQAPGNECELVSTISSDGSTYYADSVKGRFTISQDNAKNTVYLQMDSVKPEDTAVYYCAADFMIAIQAPGAGCWGQGTQVTVSSASHHHHHH
notes: Anti-hIL10Ra/hIL2Rg dual VHH with ASH6 handle; also called H1

Surface Activity [1]: 1%
Surface Activity [2]: 6%
Kd [3]: 4.3 nM
koff [3]: 0.001 s⁻¹
kon [3]: 240000 M⁻¹ s⁻¹
Kd [4]: 8.5 nM
koff [4]: 0.0015 s⁻¹
kon [4]: 170000 M⁻¹ s⁻¹
B4: DR468(DR240-DR234) (bispecific antibody)
chain: QVQLQESGGGSVQAGGSLRLSCGASGYTYSSYCMGWFRQVPGKEREGVAVIDSDGSTSYADSVKGRFTISKDNGKNTLYLQMNSLKPEDTAMYYCAADLGHYRPPCGVLYLGMDYWGKGTQVTVSSGGGSQVQLQESGGGSVQAGGSLRLSCVASGYTFSSYCMGWFRQAPGKEREGVAALGGGSTYYADSVKGRFTISQDNAKNTLYLQMNSLKPEDTAMYYCAAAWVACLEFGGSWYDLARYKHWGQGTQVTVSSASHHHHHH
notes: Anti-hIL10Ra/hIL2Rg dual VHH with ASH6 handle; also called G8

Surface Activity [1]: 2%
Surface Activity [2]: 6%
Kd [3]: 2.9 nM
koff [3]: 0.00093 s⁻¹
kon [3]: 330000 M⁻¹ s⁻¹
Kd [4]: 3.2 nM
koff [4]: 0.00099 s⁻¹
kon [4]: 310000 M⁻¹ s⁻¹
B5: DR474(DR241-DR234) (bispecific antibody)
chain: QVQLQESGGGSVQAGGSLRLSCAASGYSNCSYDMTWYRQAPGKEREFVSAIHSDGSTRYADSVKGRFFISQDNAKNTVYLQMNSLKPEDTAMYYCKTDPLHCRAHGGSWYSVRANYWGQGTQVTVSSGGGSQVQLQESGGGSVQAGGSLRLSCVASGYTFSSYCMGWFRQAPGKEREGVAALGGGSTYYADSVKGRFTISQDNAKNTLYLQMNSLKPEDTAMYYCAAAWVACLEFGGSWYDLARYKHWGQGTQVTVSSASHHHHHH
notes: Anti-hIL10Ra/hIL2Rg dual VHH with ASH6 handle; also called H9

Surface Activity [1]: 1%
Surface Activity [2]: 2%
Kd [3]: 22.6 nM
koff [3]: 0.0048 s⁻¹
kon [3]: 210000 M⁻¹ s⁻¹
Kd [4]: 30.4 nM
koff [4]: 0.0065 s⁻¹
kon [4]: 220000 M⁻¹ s⁻¹
B6: DR449(DR237-DR233) (bispecific antibody)
chain: QVQLQESGGGSVQAGGSLRLSCAASGYTYSMYCMGWFRQAPGKEREGVAQINSDGSTSYADSVKGRFTISKDNAKNTLYLQMNSLKPEDTAMYYCAADSRVYGGSWYERLCGPYTYEYNYWGQGTQVTVSSGGGSQVQLQESGGGSVQAGGSLRLSCTASGFTFDDSDMGWYRQAPGNECELVSTISSDGSTYYADSVKGRFTISQDNAKNTVYLQMNSLKPEDTAVYYCAAEPRGYYSNYGGRRECNYWGQGTQVTVSSASHHHHHH
notes: Anti-hIL10Ra/hIL2Rg dual VHH with ASH6 handle; also called F3

Surface Activity [1]: 1%
Surface Activity [2]: 4%
Kd [3]: 2.4 nM
koff [3]: 0.004 s⁻¹
kon [3]: 1.6e+06 M⁻¹ s⁻¹
Kd [4]: 3.6 nM
koff [4]: 0.0062 s⁻¹
kon [4]: 1.7e+06 M⁻¹ s⁻¹
B7: DR392(DR229-DR236) (bispecific antibody)
chain: QVQLQESGGGLVQPGGSLRLSCTASGFSFSSYPMTWARQAPGKGLEWVSTIASDGGSTAYAASVEGRFTISRDNAKSTLYLQLNSLKTEDTAMYYCTKGYGDGTPAPGQGTQVTVSSGGGSQVQLQESGGGSVQAGGSLRLSCAASRFTYSSYCMGWFRQAPGKEREGVASIDSDGSTSYTDSVKGRFTISKDNAKNTLYLQMNSLKPEDTAMYYCALDLMSTVVPGFCGFLLSAGMDYWGKGTQVTVSSASHHHHHH
notes: Anti-hIL10Ra/hIL2Rg dual VHH with ASH6 handle; also called A7

Surface Activity [1]: 1%
Surface Activity [2]: 4%
Kd [3]: 8.3 nM
koff [3]: 0.0028 s⁻¹
kon [3]: 340000 M⁻¹ s⁻¹
Kd [4]: 11.1 nM
koff [4]: 0.0053 s⁻¹
kon [4]: 470000 M⁻¹ s⁻¹
B8: DR441(DR236-DR231) (bispecific antibody)
chain: QVQLQESGGGSVQAGGSLRLSCAASRFTYSSYCMGWFRQAPGKEREGVASIDSDGSTSYTDSVKGRFTISKDNAKNTLYLQMNSLKPEDTAMYYCALDLMSTVVPGFCGFLLSAGMDYWGKGTQVTVSSGGGSQVQLQESGGGSVQAGGSLRLSCTASGFTFDDREMNWYRQAPGNECELVSTISSDGSTYYADSVKGRFTISQDNAKNTVYLQMDSVKPEDTAVYYCAADFMIAIQAPGAGCWGQGTQVTVSSASHHHHHH
notes: Anti-hIL10Ra/hIL2Rg dual VHH with ASH6 handle; also called F1

Surface Activity [1]: 9%
Surface Activity [2]: 6%
Kd [3]: 49.9 nM
koff [3]: 0.0037 s⁻¹
kon [3]: 75000 M⁻¹ s⁻¹
Kd [4]: 20.8 nM
koff [4]: 0.026 s⁻¹
kon [4]: 1.2e+06 M⁻¹ s⁻¹
B9: DR466(DR240-DR232) (bispecific antibody)
chain: QVQLQESGGGSVQAGGSLRLSCGASGYTYSSYCMGWFRQVPGKEREGVAVIDSDGSTSYADSVKGRFTISKDNGKNTLYLQMNSLKPEDTAMYYCAADLGHYRPPCGVLYLGMDYWGKGTQVTVSSGGGSQVQLQESGGGSVQAGGSLRLSCVASGYTSCMGWFRQAPGKEREAVATIYTRGRSIYYADSVKGRFTISQDNAKNTLYLQMNSLKPEDIAMYSCAAGGYSWSAGCEFNYWGQGTQVTVSSASHHHHHH
notes: Anti-hIL10Ra/hIL2Rg dual VHH with ASH6 handle; also called H7

Surface Activity [1]: 2%
Surface Activity [2]: 5%
Kd [3]: 3.2 nM
koff [3]: 0.0026 s⁻¹
kon [3]: 800000 M⁻¹ s⁻¹
Kd [4]: 3.9 nM
koff [4]: 0.0078 s⁻¹
kon [4]: 2e+06 M⁻¹ s⁻¹
B10: DR395(DR229-DR239) (bispecific antibody)
chain: QVQLQESGGGLVQPGGSLRLSCTASGFSFSSYPMTWARQAPGKGLEWVSTIASDGGSTAYAASVEGRFTISRDNAKSTLYLQLNSLKTEDTAMYYCTKGYGDGTPAPGQGTQVTVSSGGGSQVQLQESGGGSVQAGGSLRLSCTVSGYTYSSNCMGWFRQAPGKEREGVATIYTGGGNTYYADSVKGRFTISQDNAKNTVYLQMNNLKPEDTAMYYCAAEPLSRVYGGSCPTPTFDYWGQGTQVTVSSASHHHHHH
notes: Anti-hIL10Ra/hIL2Rg dual VHH with ASH6 handle; also called A2

Surface Activity [1]: 2%
Surface Activity [2]: 5%
Kd [3]: 5.3 nM
koff [3]: 0.00077 s⁻¹
kon [3]: 150000 M⁻¹ s⁻¹
Kd [4]: 6.9 nM
koff [4]: 0.0026 s⁻¹
kon [4]: 380000 M⁻¹ s⁻¹
B11: DR444(DR236-DR234) (bispecific antibody)
chain: QVQLQESGGGSVQAGGSLRLSCAASRFTYSSYCMGWFRQAPGKEREGVASIDSDGSTSYTDSVKGRFTISKDNAKNTLYLQMNSLKPEDTAMYYCALDLMSTVVPGFCGFLLSAGMDYWGKGTQVTVSSGGGSQVQLQESGGGSVQAGGSLRLSCVASGYTFSSYCMGWFRQAPGKEREGVAALGGGSTYYADSVKGRFTISQDNAKNTLYLQMNSLKPEDTAMYYCAAAWVACLEFGGSWYDLARYKHWGQGTQVTVSSASHHHHHH
notes: Anti-hIL10Ra/hIL2Rg dual VHH with ASH6 handle; also called E8
